The source of these data is PMC3921674 (2014).

Test [1] deals with WDR5 F266A (isothermal calorimetry) (UniProt P61964 1-334, F266A). The experiment in a line: ITC.
Test [2] has as its target WDR5 (wild type, isothermal calorimetry) (UniProt P61964 1-334). The experiment in a line: ITC.

Regarding ARTKQTARKS [H3(1-10)], the Kd in test [1] came out at 34.7 µM; in test [2], 31.1 µM.

Turning to GSARAEVHLRKSAFDMFNFLASKHRQPPEYNPNDEEEEEVQ [MLL1(3762-3802)], the Kd in test [1] stood at 0.6 µM; in test [2] it was 0.97 µM.
